These results are taken from PMC8419023.

The target of this test is FITC-Skp2^77−86 peptide (human) (UniProt Q13309). The test is described as follows: fluorescence polarisation.
Sequence of FITC-Skp2^77−86 peptide (human) (Q13309 whole entry, looked up, tested part not stated): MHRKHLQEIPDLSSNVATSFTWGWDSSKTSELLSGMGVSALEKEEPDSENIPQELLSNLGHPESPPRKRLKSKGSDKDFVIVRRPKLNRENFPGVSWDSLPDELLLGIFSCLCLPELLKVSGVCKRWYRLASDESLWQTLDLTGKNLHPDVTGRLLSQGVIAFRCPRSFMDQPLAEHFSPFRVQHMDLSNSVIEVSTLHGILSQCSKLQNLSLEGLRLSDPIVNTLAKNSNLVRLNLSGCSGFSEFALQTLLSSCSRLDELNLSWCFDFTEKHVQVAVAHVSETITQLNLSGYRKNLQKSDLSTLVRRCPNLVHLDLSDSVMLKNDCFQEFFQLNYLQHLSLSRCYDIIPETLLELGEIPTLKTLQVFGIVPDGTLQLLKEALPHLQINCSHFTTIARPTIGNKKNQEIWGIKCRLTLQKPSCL

In turn, “CDK2-cyclin A M210A/I213A (from UniProt P24941 1-298; P20248 173-432) (complex)” came in with a fold reduction of binding affinity against wild type of 5 fold.
